# Measurements reported in IntAct's records for PubMed 24140345.
# B1: Serine/threonine-protein kinase RIM15 (Saccharomyces cerevisiae), P43565 (parent)
# chain: MFNRSNTAGGSQAMKEGLGINKLSPISSNSNPSSLTSSNYEKYLQLATEKNPCMILELELDGKVRYGSPQWNTITGVADDSGSSPTYIADLILGSDQDKGVFQKATDMLLMNDDTSCTITFKIKAADYEGSAGCDDESTITTLEARGILIRDGHTQLPSHTMWIVKPRTNDWSDFYANEDAQDDMVIQLSDNCDDIDIQLPEEFAKTLGFGAKIFVQYLKRIRLEMIIDEFNLPLPKMELCRVCENFVPVWWLETHSQSCVCEHRTESLIQLLHDNLLEQQAILANFTKDSEYKGSQIQVRSNNFLNQVLDSLRELCQDAIDINPSEMVPDLYHSLSTFPQDNGNNNNNNNNNNNNNNALLDQFPIQKDTVSLNSYFQFSPRTNHNIQNVTSWQSRFFLNDDQDPGLALLIHDTLDLARKKVDAVLRLDNAMTYSLKIKNEVNNYVVQLIREQIEINKHAILTHPMNLRSSSIFHSPLPQIHSQQPEAENLIYSSSTPLQVQHDQCASFEAPSKSHLEPIPFPVSSIEETPTANDIRHPSPLPRSCSNTVMKLPTPRRKLDSNGLFSDAYLNADIIPNPSIESTISIDRDNNTNSRGSSMKQYGIGEATDSRTSNSERPSSSSSRLGIRSRSITPRQKIEYSHVDNDDRTNEMLSRDKDSLQPQPSVDTTITSSTQATTTGTKTNSNNSTNSVLPKLMTSISLTPRRGSPSFGNLASHSMQQTNSFKLIHDKSPISSPFTFSKDFLTPEQHPSNIARTDSINNAMLTSPNMPLSPLLLATNQTVKSPTPSIKDYDILKPISKGAYGSVYLARKKLTGDYFAIKVLRKSDMIAKNQVTNVKSERAIMMVQSDKPYVARLFASFQNKDNLFLVMEYLPGGDLATLIKMMGYLPDQWAKQYLTEIVVGVNDMHQNGIIHHDLKPENLLIDNAGHVKLTDFGLSRAGLIRRHKFVPHKSSLSISSTLPIDNPANNFTMNNNNSNHSQLSTPDSFTSDHKQYNRSKKSSLGQQYEHSEYSSTSNSHSMTPTPSTNTVVYPSYYRGKDRSHGSSNIDLPASLRRSESQLSFSLLDISRSSTPPLANPTNSNANNIMRRKSLTENKSFSNDLLSSDAIAATNTNINSNNNISLSPAPSDLALFYPDDSKQNKKFFGTPDYLAPETIEGKGEDNKQCDWWSVGCIFFELLLGYPPFHAETPDAVFKKILSGVIQWPEFKNEEEEREFLTPEAKDLIEKLLVVDPAKRLGAKGIQEIKDHPYFKNVDWDHVYDEEASFVPTIDNPEDTDYFDLRGAELQDFGDDIENDNANILFGKHGINTDVSELSAANLSPPLNHKNILSRKLSMSNTTNRSSNNSNSSVHDFGAHTPVNKLSIASVLESVPQETGYITPNGTGTTTTSAKNSPNLKNLSLAIPPHMRDRRSSKLNDSQTEFGSFNFRNLSALDKANKDAINRLKSEHFSEQPGVHRRTSSASLMGSSSDGSVSTPGSNASNTTSGGKLKIHKPTISGSPSTFGTFPKTFLRSDSFSTRSYSPERSISIDSSTLSRKGSIIGDNQQTTANSSDSPTMTKFKSPLSPANTTTVSSYFSRQRVLSKSFSQRTNSSDLSAEESDRLQAISRVNSLRNRRRSGRKSSSTSEIGYHMDVLVCEPIPIHRYRVTKDLENLGCTVVSVGAGDELVSRATSGVSFDLIMTALKLPKLGAIDIVQLLKQTNGANSTTPIVAITNYFQEAATSRVFDDVLEKPVKLDELKKLVAKYALKKSQEDEEHTILSDSDETH
# partner: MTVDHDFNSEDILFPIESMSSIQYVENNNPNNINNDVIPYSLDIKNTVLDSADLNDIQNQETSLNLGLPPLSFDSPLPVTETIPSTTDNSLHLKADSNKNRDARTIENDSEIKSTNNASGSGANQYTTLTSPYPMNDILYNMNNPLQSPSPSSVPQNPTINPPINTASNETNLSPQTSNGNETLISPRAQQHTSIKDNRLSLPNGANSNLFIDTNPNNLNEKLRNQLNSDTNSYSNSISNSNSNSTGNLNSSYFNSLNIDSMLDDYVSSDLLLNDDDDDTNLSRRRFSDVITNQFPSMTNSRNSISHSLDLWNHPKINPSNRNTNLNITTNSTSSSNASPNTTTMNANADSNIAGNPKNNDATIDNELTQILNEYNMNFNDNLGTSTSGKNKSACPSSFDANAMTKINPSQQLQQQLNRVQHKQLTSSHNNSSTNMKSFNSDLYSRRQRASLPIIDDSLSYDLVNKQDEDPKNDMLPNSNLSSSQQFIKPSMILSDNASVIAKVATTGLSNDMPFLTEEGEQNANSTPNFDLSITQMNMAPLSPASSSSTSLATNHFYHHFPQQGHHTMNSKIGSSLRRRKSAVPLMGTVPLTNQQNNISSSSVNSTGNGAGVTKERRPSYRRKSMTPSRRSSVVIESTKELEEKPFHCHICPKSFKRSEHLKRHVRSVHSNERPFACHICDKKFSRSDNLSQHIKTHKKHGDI
# B2: Serine/threonine-protein kinase RIM15 (Saccharomyces cerevisiae), P43565 (parent)
# chain: B1 chain
# partner: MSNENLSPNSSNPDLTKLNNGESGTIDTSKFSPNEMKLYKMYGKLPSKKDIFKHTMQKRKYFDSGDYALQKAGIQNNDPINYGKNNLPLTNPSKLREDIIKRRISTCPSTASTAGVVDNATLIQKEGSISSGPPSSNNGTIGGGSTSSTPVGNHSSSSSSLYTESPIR
# B3: Serine/threonine-protein kinase RIM15 (Saccharomyces cerevisiae), P43565 (parent)
# chain: B1 chain
# Variants of: B1
# Conditions: with msn2_yeast MSN2, P33748
row,effect of a mutation on the interaction,Variant
1,disrupting interaction,K823Y;C1176Y

# Variants of: B2
# Conditions: with igo1_yeast IGO1, P53897
row,effect of a mutation on the interaction,Variant
1,disrupting interaction,K823Y;C1176Y

# Variants of: B3
# Conditions: with hsf_yeast HSF1, P10961
# hsf_yeast HSF1, P10961, sequence (P10961 whole entry): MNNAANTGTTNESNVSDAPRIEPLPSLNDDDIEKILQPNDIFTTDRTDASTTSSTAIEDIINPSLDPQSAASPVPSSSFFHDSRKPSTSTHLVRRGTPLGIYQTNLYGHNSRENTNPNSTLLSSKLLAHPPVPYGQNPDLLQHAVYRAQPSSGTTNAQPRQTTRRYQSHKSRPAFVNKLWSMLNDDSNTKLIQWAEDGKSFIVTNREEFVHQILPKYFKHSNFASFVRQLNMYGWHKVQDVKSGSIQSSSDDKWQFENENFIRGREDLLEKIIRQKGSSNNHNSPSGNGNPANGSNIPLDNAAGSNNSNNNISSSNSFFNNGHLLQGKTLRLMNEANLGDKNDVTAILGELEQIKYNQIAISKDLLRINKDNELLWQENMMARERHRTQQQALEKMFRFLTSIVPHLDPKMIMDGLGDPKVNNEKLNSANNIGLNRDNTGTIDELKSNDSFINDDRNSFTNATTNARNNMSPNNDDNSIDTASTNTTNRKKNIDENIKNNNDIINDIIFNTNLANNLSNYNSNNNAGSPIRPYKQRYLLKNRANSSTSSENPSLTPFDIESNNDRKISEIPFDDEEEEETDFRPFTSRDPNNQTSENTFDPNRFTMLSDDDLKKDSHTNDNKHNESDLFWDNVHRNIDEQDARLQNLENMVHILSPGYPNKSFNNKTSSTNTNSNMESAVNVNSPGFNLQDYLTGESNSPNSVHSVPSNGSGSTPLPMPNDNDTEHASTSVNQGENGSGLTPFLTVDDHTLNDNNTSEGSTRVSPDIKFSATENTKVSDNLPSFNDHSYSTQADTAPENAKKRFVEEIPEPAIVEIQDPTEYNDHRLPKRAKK
row,effect of a mutation on the interaction,Variant
1,disrupting interaction,K823Y;C1176Y
